The results in this text go back to patent US20220041739A1 (UNIVERSITY OF ULSTER, published 2022).

This test deals with T1, IL-1R1 Fc fusion protein.
T1 construct: Used as immunogen and as ELISA coating antigen at 1 ug/ml; also called IL-1R1 immunogen
T1 chain: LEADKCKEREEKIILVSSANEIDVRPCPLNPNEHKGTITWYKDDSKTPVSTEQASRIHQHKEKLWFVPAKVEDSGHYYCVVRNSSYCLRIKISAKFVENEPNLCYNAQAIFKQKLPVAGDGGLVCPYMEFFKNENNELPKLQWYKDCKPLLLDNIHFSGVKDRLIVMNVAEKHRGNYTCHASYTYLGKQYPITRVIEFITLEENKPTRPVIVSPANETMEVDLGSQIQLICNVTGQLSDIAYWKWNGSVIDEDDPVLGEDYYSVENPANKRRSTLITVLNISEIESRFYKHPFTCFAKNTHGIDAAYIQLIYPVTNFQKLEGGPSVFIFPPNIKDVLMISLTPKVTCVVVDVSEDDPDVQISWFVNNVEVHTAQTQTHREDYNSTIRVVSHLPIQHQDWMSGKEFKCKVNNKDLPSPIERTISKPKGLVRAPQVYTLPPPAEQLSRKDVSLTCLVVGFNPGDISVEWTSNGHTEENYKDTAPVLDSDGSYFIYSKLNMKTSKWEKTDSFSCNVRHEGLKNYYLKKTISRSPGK
In words: ELISA of hybridoma supernatants on coated IL-1R1, with APO-A1 as negative control. The protocol: The day prior to screening, a Maxi Sorp plate was coated by adding 100 μl/well of 50 mM sodium carbonate coating buffer (pH 9.5) containing the IL-1R1 at 1 μg/ml. A separate coating solution was prepared by diluting APO-A1 in the same coating buffer at 1 μg/ml. […] This plate was incubated overnight at 4° C. in static conditions.
Eleven days after fusion, protoclones were screened by ELISA. 20× Maxi Sorp 96 well plates were coated as described herein using APO-A1 at 1 μg/ml as the negative control for specificity. The coating solution was removed and the plates were blocked as described herein. Samples were prepared by removing 160 μl of supernatant from each well of the ten fusion plates, limiting dilution plates, or 24-well plates and transferring to fresh 96 well culture plates containing 50 μl 1×PBS. After 2 hours of blocking, the blocking solution was removed, and the plates were washed 3× with PBS-T. The samples from each dilution plate were loaded onto the ELISA plates at 100 μl/well by adding 1 row from each dilution plate per 2 rows on the ELISA plates to account for specificity of the coating antigens. Two wells per ELISA were incubated with 100 μl 1×PBS as a negative control. These samples were incubated at 150 rpm for 2 hours at room temperature.
Background: ELISA stands for enzyme-linked immunosorbent assay.

B1: Anti-IL-1R1 monoclonal antibody produced from clone F237 5D1-1A8-2A5 (antibody, V domains shown)
VH: QIQLVQSGPELRKPGETVRISCKASGYPFTTAGLQWVQKMSGKGLKWIGWMNTQSEVPKYAEEFKGRIAFSLETAASTAYLQINNLKTEDTATYFCAKSVYFNWRYFDVWGAGTTVTVSS
VL: DIVMTQSPATLSVTPGDRVSLSCRASQSISDYLSWYQQRSHESPRLIIKYASQSISGIPSRFSGSGSGSDFTLSINSVEPEDVGVYYCQHGHSFPLTFGSGTKLELKR
notes: Mouse hybridoma antibody tested as culture supernatant; also called first antibody (to IL-1R1)
For the molecule B1, the binding result was “binds”.
